Experiments:
[1] = chemical stability; Y-P30 (aa 21-49) 2 μg/μl in PBS, room temperature, Eppendorf tube on bench shelf with regular light exposure; 24, 48, 72 h, 7 and 14 days; SDS-PAGE, immunoblot with rabbit anti-Y-P30; 13,5 μg per lane
Description: (§1) Y-P30 (aa 21–49) was synthesized as described previously [1]. For measuring stability of the peptide in vitro, Y-P30 was diluted in PBS (2 μg/μl) and incubated at room temperature over 24, 48 and 72 hours as well as 7 and 14 days. Additionally, the effect of different denaturing agents (urea, 8 M; dithiothreitol (DTT), 50 mM and 100 mM; iodoacetamide, 50 mM) was studied with incubation times of 2 and 12 hours. Thereafter, 4x sample loading dye (containing 5% beta-mercaptoethanol and 8% SDS) was added to 1x final concentration, all samples were boiled for 5 min at 95°C and subjected to SDS-PAGE with subsequent immunoblotting using a rabbit anti-Y-P30 antibody described previously [1, 2].

[2] = Oligomerization of synthetic Y-P30 and resistance to denaturing agents (SDS-PAGE/immunoblot); assay type: physicochemical; conditions: immunoblot
Description: as §1

In the case of “Y-P30: synthetic survival promoting peptide, aa 21–49 of the human Y-P30/dermcidin precursor (DPEAASAPGSGNPCHEASAAQKENAGEDP; Survival-promoting peptide; UniProt P81605 21-49, looked up, fragment)”, the “time for which the 15 kDA oligomer is stable” value [1] was “at least 14 days”, the “apparent size of SDS-resistant multimer of the synthetic peptide” value ([2]; SDS-PAGE after boiling 5 min at 95°C in loading dye (5% beta-mercaptoethanol, 8% SDS at 4x), 10 μg per lane) was 10–15 kDa and the “resistance of the 10-15 kDa oligomer species to denaturing agents” value ([2]; urea 8 M, DTT 50 mM and 100 mM, iodoacetamide 50 mM, incubation 2 h and 12 h (overnight), SDS-PAGE) was “resistant to urea, DTT and iodoacetamide”.
